Reference: US7968093B2, “Fully human antibodies directed against the human insulin-like growth factor-1 receptor” (ImClone LLC, priority 2003, dated 2011)

Key:
[1] = biological target: T1, IGF-IR (Homo sapiens, UniProt P08069); experiment: FACs binding analysis to human cell lines; format: cell-based; set-up: endogenous in cells; HT-29; BxPC-3; HEL; details: 0.5 μg A12
Procedure: Since A12 was capable of immunoprecipitating endogenous IGF-IR, we were therefore interested in determining if A12 could also be used as detection antibody for fluorescence activated cell sorting (FACs). Human tumor cell lines were grown in culture, scraped into ice-cold PBS, and counted. Primary antibody, A12 (0.5 μg), was added to approximately 5 million cells in 250 μl PBS/5% FBS and incubated on ice for 1 hour. The cells were then diluted to 3 mls in PBS/5% FBS, pelleted, and the supernatant aspirated. Secondary phycoerythin (PE)-labeled goat anti-human IgG F(ab)2 fragment was then added in 250 μl PBS/5% FBS at 1:200 and incubated on ice for 60 minutes. Afterwards, the cells were again diluted and pelleted, as before, then resuspended in 500 μl PBS/5% FBS. FACs analysis was then performed on a Epics XL unit (Coulter). […] IGF-IR negative mouse embryo fibroblasts (R-cells) (obtained from R. Baserga, Thomas Jefferson University, Philadelphia, Pa.) served as the negative control.

[2] = biological target: T1, IGF-IR; experiment: BIAcore binding kinetics on immobilized soluble IGF-IR; set-up: recombinant extracellular portion of human IGF-IR was used to screen; details: full IgG, BIACORE 3000
Procedure: Binding kinetic analysis was performed on 2F8 IgG using a BIAcore unit.
Binding results were determined by human IGF-IR ELISA and represent the concentration of titered antibody necessary to achieve 50% binding relative to saturation. Blocking results represent the level of antibody necessary to inhibit 50% binding of ^125I-IGF-I ligand to immobilized human IGF-IR. Affinity was determined by BIAcore analysis according to manufacturer's specifications (Pharmacia BIACORE 3000). Soluble IGF-IR was immobilized on the sensor chips and antibody binding kinetics determined.

[3] = biological target: T2, IGF-IR in HT-29 cells and BxPC-3 cells (Homo sapiens, UniProt P08069); experiment: Total cellular IGF-IR after treatment; format: cell-based; details: HT-29 and BxPC-3 cells; A12 after 3-6 hours
T2 construct: endogenous in cells; HT-29; BxPC-3; HEL

[4] = biological target: T3, mouse IGF-IR (Mus musculus, UniProt Q60751); experiment: FACs binding analysis to mouse cell lines; format: cell-based; details: mouse tumor cell line Lewis Lung carcinoma
T3 construct: endogenous in cells; host or cells: Lewis Lung carcinoma (mouse); R- mouse embryo fibroblasts (IGF-IR negative control)
T3 sequence (Q60751 31-737 limits assumed): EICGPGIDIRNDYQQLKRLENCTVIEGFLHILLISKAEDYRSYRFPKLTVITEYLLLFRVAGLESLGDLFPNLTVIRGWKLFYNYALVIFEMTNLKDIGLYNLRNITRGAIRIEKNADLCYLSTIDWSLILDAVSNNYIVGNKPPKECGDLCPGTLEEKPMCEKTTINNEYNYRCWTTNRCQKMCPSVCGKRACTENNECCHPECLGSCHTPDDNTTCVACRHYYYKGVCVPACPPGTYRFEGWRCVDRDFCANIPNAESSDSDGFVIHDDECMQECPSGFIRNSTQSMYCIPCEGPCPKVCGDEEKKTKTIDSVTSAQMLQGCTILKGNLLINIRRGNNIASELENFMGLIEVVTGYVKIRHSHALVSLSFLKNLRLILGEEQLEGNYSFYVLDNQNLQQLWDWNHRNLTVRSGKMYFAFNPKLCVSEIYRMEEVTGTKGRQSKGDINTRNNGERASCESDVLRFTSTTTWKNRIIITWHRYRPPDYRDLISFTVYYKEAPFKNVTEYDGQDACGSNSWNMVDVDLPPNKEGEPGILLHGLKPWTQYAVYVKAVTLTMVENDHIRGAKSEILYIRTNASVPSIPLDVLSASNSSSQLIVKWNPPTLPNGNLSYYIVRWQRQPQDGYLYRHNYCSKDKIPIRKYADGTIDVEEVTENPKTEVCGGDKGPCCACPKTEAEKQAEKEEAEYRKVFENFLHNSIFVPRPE
T3 sequence (Q60751 742-1373 limits assumed): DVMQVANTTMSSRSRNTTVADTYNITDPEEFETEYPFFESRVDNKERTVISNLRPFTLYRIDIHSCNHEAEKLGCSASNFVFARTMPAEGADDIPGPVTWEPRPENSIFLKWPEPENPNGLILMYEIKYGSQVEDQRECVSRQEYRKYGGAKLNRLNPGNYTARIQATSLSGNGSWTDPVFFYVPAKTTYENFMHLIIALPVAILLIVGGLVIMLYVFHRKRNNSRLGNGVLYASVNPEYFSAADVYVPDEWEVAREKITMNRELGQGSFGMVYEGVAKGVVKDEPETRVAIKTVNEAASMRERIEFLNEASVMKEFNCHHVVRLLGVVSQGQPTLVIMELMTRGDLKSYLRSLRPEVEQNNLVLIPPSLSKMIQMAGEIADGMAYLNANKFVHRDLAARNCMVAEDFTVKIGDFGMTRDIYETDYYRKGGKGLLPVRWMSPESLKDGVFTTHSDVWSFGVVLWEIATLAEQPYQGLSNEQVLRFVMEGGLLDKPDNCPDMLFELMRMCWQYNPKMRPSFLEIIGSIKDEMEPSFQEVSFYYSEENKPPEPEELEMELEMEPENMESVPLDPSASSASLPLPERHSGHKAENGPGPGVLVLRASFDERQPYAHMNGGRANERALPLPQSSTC

[5] = tested on: mouse IGF-IR; experiment: FACs binding analysis to mouse cell lines; format: cell-based; details: IGF-IR negative mouse embryo fibroblasts (R- cells)
[6] = tested on: human colorectal cancer line HT-29; experiment: HT-29 xenograft, A12 monotherapy; format: in vivo, mouse
Procedure: We were interested to determine if the anti-IGF-IR antibodies were capable of inhibiting human tumor growth in vivo in a nude mouse xenograft model. Tumors were induced in 3-4 week old athymic nude (nu/nu) mice by subcutaneous injection of 2-3 million viable HT-29 human colorectal cancer cells in cell culture medium. The tumors were allowed to establish and antibody treatment started when the tumor volume reached 200 mm^3. Ten animals were injected with tumor cells per treatment group. Antibody was injected intraperitoneally (IP) every three days at 1 mg or 0.5 mg in 0.5 ml TBS. The drug irenotecan (CPT-11) (LKT Laboratories) was injected IP (100 mg/kg) once a week for four weeks from the initiation of antibody treatment. Control animals received a class matched irrelevant human IgG antibody. Tumor measurements were performed at regular intervals using Vernier calipers, measuring height, width, and length and calculated to determine the total tumor volume. The study was terminated when control tumors reached 3000 mm^3.
Tumors were induced as previously described, and antibody treatment initiated once tumors were established (200 mm^3 size). Antibody treatment was then given at a concentration of 1 mg, 100 μg, or 10 μg every three days throughout the duration of the experiment. Ten animals were used per treatment group and control animals received a class match IgG control antibody.

[7] = tested on: MCF7 human breast cancer; experiment: MCF7 xenograft, A12 monotherapy; format: in vivo, nude mice
Procedure: In order to assess its activity on MCF7 tumor growth in vivo, a mouse xenograft tumor model was utilized. MCF7 cells were originally isolated from an estrogen-dependent human tumor and require exogenously added estrogen for maintenance and growth in vivo. Nude mice were implanted with biodegradable estrogen pellets (0.72 mg 17-β-estradiol/pellet, 60 day release). In addition, at the time of subcutaneous tumor cell injection, the mice were also injected in the right flank subcutaneously with 0.5 mg of estradiol in a 50 μl suspension of sesame seed oil. Tumors were allowed to establish a size of approximately 150 mm^3 before antibody treatment was initiated. Antibody was injected at 1 mg, 100 μg, and 10 μg doses every three days and continued for the duration of the experiment. At 29 days, treatment of animals with 1 mg of A12 effected an 89% reduction in tumor growth (FIG. 25). Minimal growth was apparent for the established tumors in this treatment group.

[8] = biological target: T1, IGF-IR; experiment: Blocking of 125I-IGF-I binding to immobilized soluble IGF-IR; set-up: recombinant extracellular portion of human IGF-IR was used to screen
Procedure: Forty 40 pM of ^125I-IGF-I was then added and the plates incubated an additional 90 minutes. […] Affinity was determined by BIAcore analysis according to manufacturer's specifications (Pharmacia BIACORE 3000). Soluble IGF-IR was immobilized on the sensor chips and antibody binding kinetics determined. […] The activity of A12 remained the same, irrespective of whether the light chain was engineered with a human lambda or kappa class constant region. Antibody A12 engineered with a lambda class light chain was utilized in all subsequent procedures.

FACs shift ([1]; HEL human leukemia cell line): fully shifted
FACs shift ([1]; MCF7 human breast cancer cell line): fully shifted
Affinity Koff [2]: Koff = 3.0 × 10^−5
Affinity Kon [2]: Kon = 7.2 × 10^5
Kd ([2]; read-out: Affinity KD): 0.041 nM
effect on total cellular IGF-IR [3]: severe depletion of IGF-IR levels
FACs shift [4]: partially shift
increase in blocking activity of ligand for immobilized receptor, A12 versus 2F8 ([8]; full IgG): at least a three-fold increase
Substance: A12: fully human IgG1 anti-IGF-IR antibody, lambda light chain; VH SEQ ID NO:2, VL SEQ ID NO:10; affinity matured from 2F8
FACs binding [5]: failed to bind
anti-tumor activity ([6]; 100 μg every three days): Anti-tumor activity was also observed
reduction in tumor growth compared to control ([6]; every three days, P<0.05, dose of this value not stated (1 mg, 100 μg, 10 μg tested)): 74%
reduction in tumor growth ([7]; 1 mg every three days, at 29 days): 89%
tumor regression ([7]; antibody alone 1 mg/dose, continued to termination (50 days)): tumor regression was observed
inhibition of radiolabeled IGF-I binding compared with cold ligand ([8]; FIG. 15): to a greater extent than competition with cold ligand
